Assay results published in publication PMC1934351.

Assays:
[1] = system: L1 repressor CI (native, untagged) (Mycobacteriophage L1); assay: equilibrium binding; conditions: data not shown; EMSA in Buffer A (binding buffer composition not given in material) with 10 ug/ml BSA, ~0.1 nM 32P-labeled operator, 20 ul, 25 C for 20 min (also 32, 37, 42 C …)
[2] = target: N-terminal histidine-tagged repressor (CI) of temperate mycobacteriophage L1 (mycobacteriophage L1); assay: SEC; analytical HPLC gel filtration (Protein Pak, Waters) in Buffer A minus PMSF; ~20 uM protein loaded; column calibrated with BSA, ovalbumin, carbonic anhydrase, lysozyme; monomer to dimer
[3] = target: N-terminal histidine-tagged repressor (CI) of temperate mycobacteriophage L1 (mycobacteriophage L1); assay: cross-linking; 0.1% glutaraldehyde for 2 min after 20 min at 25°C in Buffer A, ~0.5 uM protein, SDS-10% PAGE, silver staining; monomer to dimer
[4] = target: C-terminal domain (CTD) of L1 repressor CI (mycobacteriophage L1); assay: SEC; analytical HPLC gel filtration (Protein Pak, Waters) in Buffer A minus PMSF; ~20 uM protein loaded; column calibrated with BSA, ovalbumin, carbonic anhydrase, lysozyme; monomer to dimer
[5] = target: C-terminal domain (CTD) of L1 repressor CI (mycobacteriophage L1); assay: cross-linking; 0.1% glutaraldehyde for 2 min after 20 min at 25°C in Buffer A, ~0.5 uM protein, SDS-10% PAGE, silver staining; monomer to dimer
[6] = system: L1 repressor CI (native, untagged) (Mycobacteriophage L1); assay: EMSA; conditions: EMSA in Buffer A (binding buffer composition not given in material) with 10 ug/ml BSA, ~0.1 nM 32P-labeled operator, 20 ul, 25 C for 20 min (also 32, 37, 42 C …); for Kd: 25 C, apparent Kd at 50% saturation

Sequence of N-terminal histidine-tagged repressor (CI) of temperate mycobacteriophage L1 (Q05286 whole entry): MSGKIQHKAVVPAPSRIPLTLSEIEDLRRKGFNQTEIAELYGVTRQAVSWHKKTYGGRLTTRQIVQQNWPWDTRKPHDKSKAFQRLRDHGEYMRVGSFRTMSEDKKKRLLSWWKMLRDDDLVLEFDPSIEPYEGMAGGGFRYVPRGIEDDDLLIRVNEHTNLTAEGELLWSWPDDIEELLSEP

21 bp DNA carrying OL operator
binding signal (affinity relative to N3 (1/2.57)) [1]: 0.389

21 bp DNA carrying O64 operator
binding signal (fold higher affinity than N4) [1]: 2.57

N-terminal histidine-tagged repressor (CI) of temperate mycobacteriophage L1
stoichiometry N [2]: 2 | stoichiometry N [3]: 2

C-terminal domain (CTD) of L1 repressor CI (domain or fragment)
stoichiometry N [4]: 2 | stoichiometry N [5]: 2

OL (97 bp)
Kd [6]: 370 nM

O64 (~120 bp)
Kd [6]: 140 nM | binding signal (fold decrease of affinity vs 25 C) [6]: 6
